pKd: −log10 of the molar value.
Biological target: Thermoanaerobacter italicus TagA^FL∗ (residues M1-R244, I203E/L209Q/L212K/I216E), solubility-enhanced TagA (Thermoanaerobacter italicus)
Assay: AUC

- pKd: 3.68
- stoichiometry N: 2
Substance: Thermoanaerobacter italicus TagA^FL∗ (residues M1-R244, I203E/L209Q/L212K/I216E), solubility-enhanced TagA (enzyme)

— publication PMC8784642
